Experimental data published in paper PMC4227792 (Nucleic Acids Research, 2014).
Each block holds one binder with its values, some of them ahead of it.

Experiments:
Csl4 = target: T1, Csl4 (Saccharolobus (Sulfolobus) solfataricus, UniProt Q980J9 1-189); assay: EMSA; 25 fmol RNA; 20 mM HEPES pH 7.9, 60 mM KCl, 10 mM MgCl2, 10% glycerol, 2 mM DTT, 0.1 mM EDTA; room temperature 5 min, 10 ul; 5% native PAA gel at 4 C
T1 sequence: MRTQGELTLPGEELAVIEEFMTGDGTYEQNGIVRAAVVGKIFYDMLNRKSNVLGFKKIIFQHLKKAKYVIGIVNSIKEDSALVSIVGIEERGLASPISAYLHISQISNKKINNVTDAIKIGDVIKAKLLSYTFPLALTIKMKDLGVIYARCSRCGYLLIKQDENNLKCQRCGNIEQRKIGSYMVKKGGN

Csl4-NT = target: T2, Csl4-NT (Saccharolobus (Sulfolobus) solfataricus, UniProt Q980J9 1-189+=V+P95980:2-156, internal_change); assay: as above
T2 sequence: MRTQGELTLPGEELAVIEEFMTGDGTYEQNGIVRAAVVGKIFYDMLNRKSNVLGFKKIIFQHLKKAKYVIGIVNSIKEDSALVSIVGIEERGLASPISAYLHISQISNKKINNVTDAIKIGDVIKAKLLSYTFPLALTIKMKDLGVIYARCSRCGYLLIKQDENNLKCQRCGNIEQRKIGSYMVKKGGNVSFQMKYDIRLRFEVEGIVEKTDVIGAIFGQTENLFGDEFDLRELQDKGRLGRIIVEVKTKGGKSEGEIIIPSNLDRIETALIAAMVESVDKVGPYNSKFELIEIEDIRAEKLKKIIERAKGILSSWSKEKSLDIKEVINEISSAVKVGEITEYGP

DnaG [1] = target: T3, DnaG (Saccharolobus (Sulfolobus) solfataricus, UniProt P95980 1-406); assay: EMSA; 25 fmol RNA, 2.5 pmol protein; 20 mM HEPES pH 7.9, 60 mM KCl, 10 mM MgCl2, 10% glycerol, 2 mM DTT, 0.1 mM EDTA; room temperature 5 min, 10 ul; 5% native PAA gel at 4 C
T3 sequence: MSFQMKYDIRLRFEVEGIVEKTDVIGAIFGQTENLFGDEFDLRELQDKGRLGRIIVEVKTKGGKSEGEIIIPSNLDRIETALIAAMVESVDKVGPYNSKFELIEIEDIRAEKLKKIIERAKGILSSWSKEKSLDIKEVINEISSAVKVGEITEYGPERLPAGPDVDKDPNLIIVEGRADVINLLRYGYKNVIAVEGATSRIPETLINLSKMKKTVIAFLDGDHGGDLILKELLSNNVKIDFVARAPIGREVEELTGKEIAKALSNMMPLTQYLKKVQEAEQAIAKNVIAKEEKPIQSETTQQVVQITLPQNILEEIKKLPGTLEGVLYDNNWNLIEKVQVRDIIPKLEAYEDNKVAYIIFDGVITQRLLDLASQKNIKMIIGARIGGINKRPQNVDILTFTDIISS

DnaG-K6AY7A = target: T4, DnaG-K6AY7A (Saccharolobus (Sulfolobus) solfataricus, UniProt P95980 1-406, K6A;Y7A); assay: as above
T4 sequence: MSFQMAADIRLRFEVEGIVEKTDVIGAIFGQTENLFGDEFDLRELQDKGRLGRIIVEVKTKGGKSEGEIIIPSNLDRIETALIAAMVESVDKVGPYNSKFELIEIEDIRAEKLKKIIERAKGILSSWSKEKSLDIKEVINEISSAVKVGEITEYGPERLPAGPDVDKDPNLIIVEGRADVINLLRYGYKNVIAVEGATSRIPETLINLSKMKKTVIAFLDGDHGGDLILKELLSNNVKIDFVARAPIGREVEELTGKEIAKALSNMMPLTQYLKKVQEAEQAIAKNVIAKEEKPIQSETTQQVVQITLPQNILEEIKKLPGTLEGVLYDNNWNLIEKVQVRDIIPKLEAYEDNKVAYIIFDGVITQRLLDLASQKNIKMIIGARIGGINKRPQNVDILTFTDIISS

[2] = target: T5, His6-Rrp41 of Sulfolobus solfataricus (Sulfolobus solfataricus, UniProt Q9UXC2 1-248); assay: pull-down; subunits of the reconstituted Strep-Csl4 exosome (purified His6-Rrp41, His6-Rrp42 and Strep-tagged Csl4 mixed in buffer P0) recovered on Strep-Tactin Sepharose through Strep-Csl4, E. coli cell-free extract with DnaG-K6AY7A present; eluted with D-desthiobiotin; silver-stained SDS-PAGE; settings: both partners purified
T5 sequence (looked up): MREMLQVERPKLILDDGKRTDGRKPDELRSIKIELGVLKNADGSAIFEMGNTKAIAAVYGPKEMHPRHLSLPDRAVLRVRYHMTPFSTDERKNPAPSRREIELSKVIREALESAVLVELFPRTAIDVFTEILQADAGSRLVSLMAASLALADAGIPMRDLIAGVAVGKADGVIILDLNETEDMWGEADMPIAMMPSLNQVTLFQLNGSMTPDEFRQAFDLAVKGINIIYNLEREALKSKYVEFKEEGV

[3] = target: T6, His6-Rrp42 of Sulfolobus solfataricus (Sulfolobus solfataricus, UniProt Q9UXC0 1-275); assay: as above; settings: both partners purified
T6 sequence (looked up): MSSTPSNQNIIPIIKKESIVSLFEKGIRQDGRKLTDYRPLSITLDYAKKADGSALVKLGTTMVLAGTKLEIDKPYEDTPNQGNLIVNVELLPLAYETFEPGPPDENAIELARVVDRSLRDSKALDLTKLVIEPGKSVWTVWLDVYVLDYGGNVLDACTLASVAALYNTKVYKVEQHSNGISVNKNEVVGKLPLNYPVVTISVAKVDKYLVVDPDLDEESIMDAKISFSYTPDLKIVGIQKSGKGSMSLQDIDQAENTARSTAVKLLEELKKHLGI

DnaG [4] = target: T3, DnaG; assay: EMSA; 25 fmol DNA, 2.5 pmol protein; 20 mM HEPES pH 7.9, 60 mM KCl, 10 mM MgCl2, 10% glycerol, 2 mM DTT, 0.1 mM EDTA; room temperature 5 min, 10 ul; 5% native PAA gel at 4 C

Binder: AAAAAAAAAAAAAAAAAAAAAAAAAAAAAA (ssRNA) [poly(rA)30]
binding result (Csl4): no binding
binding result (Csl4-NT): binds
binding result (DnaG [1]): binds
binding result (DnaG-K6AY7A): no binding

binding result [2]: binds
binding result [3]: binds
B1: Strep-tagged Csl4 of Sulfolobus solfataricus (natural protein, UniProt Q980J9 1-189, looked up)
chain: MRTQGELTLPGEELAVIEEFMTGDGTYEQNGIVRAAVVGKIFYDMLNRKSNVLGFKKIIFQHLKKAKYVIGIVNSIKEDSALVSIVGIEERGLASPISAYLHISQISNKKINNVTDAIKIGDVIKAKLLSYTFPLALTIKMKDLGVIYARCSRCGYLLIKQDENNLKCQRCGNIEQRKIGSYMVKKGGN

Binder: AAAAAAAAAAAAAAAAAAAAAAAAAAAAAA (ssDNA) [poly(dA)30]
binding result (DnaG [4]): no binding
